{"source": "patent US10000775B2", "about": "“Biosynthesis of 1-undecene and related terminal olefins” (The Regents of the University of California, priority 2013, dated 2018)", "molecules": {"B1": {"name": "PFL_0203: hypothetical membrane-associated protein from Pseudomonas fluorescens Pf-5 converting C10-C16 fatty acids into 1-alkenes (protein, listed as Pseudomonas protegens)", "chain": "MQGISASPERMNAQQRAAHVRQVVLARGDELRRRFPLLRHQDALGAGILAFALSGMLGSALLYVTGHLAWWACLLLNAFFASLTHELEHDLIHSMYFRKQRLPHNLMLGLVWLARPSTINPWVRRHLHLNHHKVSGSESDIEERAITNGEPWGIARLLMVGDNMMAAFIRLLRAPGARRKLGILVRTLAVYAPLALLHWGAWYVFLGFHGANGVAALLGSPIQWSQDTASLMHYVDIAVVVIIGPNVLRTFCLHFVSSNMHYYGDIEPGNVIQQTQVLNPWWMWPLQAFCCNFGSTHGIHHFVVREPFYIRQMTASVAHKVMAEMGVRFNDFGTFARANRFTRQEREAMQPAHNARA"}}, "key": {"[1]": {"tested_on": "E. coli", "test": "1-undecene production in E. coli overexpressing PFL_4321, PFL_0203 or homologs, with or without UcFatB2", "type": "cell-based", "conditions": "E. coli, one-day shake flask culture in LB media without exogenous lauric acid", "protocol": "E. coli, P. aeruginosa PAO-1, and P. aeruginosa PA14 strains were grown in 5 mL of LB medium overnight at 37° C., while all the other Pseudomonas and Acinetobacter strains were grown at 30° C. […] The culture was shaken in a sealed 20 mL headspace vial (Agilent certified) containing a stir bar at 30° C. for 36 hr. After incubation, an SPME fiber (30 μm polydimethylsiloxane, Supelco, Sigma-Aldrich Group, Bellefonte, Pa.) was manually inserted into the headspace vial and incubated at 25° C. for 12.5 min. GC-MS analysis was conducted on a Varian CP-3800 instrument equipped with a Varian 320-MS. […] The signals of the 1-alkenes were identified and quantified by comparison with authentic samples (MP Biomedicals), which were diluted in ethyl acetate, added to 5 mL of culture medium in a sealed headspace vial, and sampled by the same SPME-GCMS method as described above.\n[…] 1-Undecene production was detected by using the SPME-GCMS method. […]\nTo investigate whether PFL_0203 was facilitating the production of 1-undecene, this gene was individually expressed in E. coli and the cells were monitored for 1-undecene production. […]"}, "[2]": {"test": "In vitro activity of PFL_4321 and PFL_0203 toward fatty acids with various chain lengths", "type": "biochemical", "set-up": "key to In vitro activity toward C8:0 / In vitro activity toward C10:0 / In vitro activity toward C12:0 / In vitro activity toward C14:0 / In vitro activity toward C16:0: ✓: indicates production of the corresponding 1-alkene from the indicated substrate; x: indicates failure to produce the corresponding 1-alkene from the indicated substrate", "protocol": "A typical condition is as follows: 1 mL of reaction mixture contains 50 mM MES buffer (pH 6.2), 300 mM NaCl, 100 μM (NH4)2Fe(SO4)2, 1 mM ascorbic acid, 100 μM fatty acid substrate or analogs, and 10 μM enzyme. The reaction was performed in a sealed headspace vial at 30° C., initiated by adding lauric acid and quenched by injecting equal volume of 5 M NaOH. 1-Undecene production was analyzed and quantified by using the SPME-GCMS method. To determine the kinetic parameters of PFL_4321 on lauric acid, initial velocities at 1, 10, 20, 50, 100, and 150 μM of lauric acid were measured (25 mM lauric acid solution was prepared by adding 0.5% tergitol and heating at 65° C. for 10 min). The reactions were quenched at 2, 4, 6, 8, and 10 seconds, and the acquired turnover rates were fit to the Michaelis-Menten equation using GraphPad Prism to obtain kcat and Km. The kcat and Km of myristic acid and capric acid were determined similarly.\nUnless otherwise noted, all experiments with PFL_0203 as described herein were performed using similar assays, procedures, and techniques as used in a given corresponding experiment as described in Example 1.\nThe fatty acid substrate specificity of PFL_0203 was investigated in a series of in vitro experiments. […] Thus, PFL_4321 and PFL_0203 share some overlap in suitable substrates; PFL_4321 is able to act on C10-C14 fatty acid substrates, and PFL_0203 is able to act on C10-C16 fatty acid substrates."}, "[3]": {"test": "In vitro 1-undecene production by purified PFL_0203 with E. coli crude extract", "type": "biochemical", "conditions": "purified PFL_0203 mixed with E. coli crude extract and exogenous lauric acid"}}, "data": [{"molecule": "B1", "values": [{"measurement": "titer of 1-undecene", "setting": "[1]", "result": "~0.2", "unit": "µg/mL"}, {"measurement": "activity on C8 or C18 fatty acids", "setting": "[2]; in vitro, C8 or C18 fatty acids", "result": "failed to act"}, {"measurement": "conversion of C10-C16 fatty acids into their corresponding [M-1] 1-alkenes", "setting": "[2]; in vitro, C10-C16 fatty acids", "result": "converted"}, {"measurement": "In vitro activity toward C8:0", "setting": "[2]; substrate C8:0", "result": "x"}, {"measurement": "In vitro activity toward C10:0", "setting": "[2]; substrate C10:0", "result": "trace"}, {"measurement": "In vitro activity toward C12:0", "setting": "[2]; substrate C12:0", "result": "✓"}, {"measurement": "In vitro activity toward C14:0", "setting": "[2]; substrate C14:0", "result": "✓"}, {"measurement": "In vitro activity toward C16:0", "setting": "[2]; substrate C16:0", "result": "trace"}, {"measurement": "1-undecene production", "setting": "[3]", "result": "resulted in 1-undecene production"}]}]}
